HRP-filled vesicles in endothelial cells of Vtn^RGE mice compared to wildtype animals data for 1 substance are collected here from patent US20230383295A1.

In this test the target is integrin receptors. In words: cell-based or functional assay.

“vitronectin with RGD domain mutated to RGE (knock-in mouse line Vtn^RGE/RGE) (from UniProt P29788 20-478) (ligand)” yielded an HRP-filled vesicles in endothelial cells of Vtn^RGE mice compared to wildtype animals of 2 fold.
